Data as given in the RNAGym collection of RNA variant scans (doi:10.1073/pnas.2313332121).

B1: TPR t1 (parent)
chain: GACCAAUCUGCCCUCAGAGCUCGAGAACAUCUUCGGAUGCAGAGGAGGCAGGCUUCGGUGGCGCGAUAGCGCCAACGUCCUCAACCUCCAAUGCAUCCCACCACAUGAUGAUGCCUGAAGAGCCUUGGUUUUUUG

Variants of: B1
Assay: polymerase ribozyme fitness, log enrichment relative to wild type (log ratio); higher = more active; in vitro selection for triplet polymerase activity
How it was run: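 Input and output libraries were sequenced on Illumina after a single in vitro selection round, run in triplicate on PCR-built, transcribed mutant libraries of each subunit of a heterodimeric triplet polymerase ribozyme. Selection annealed libraries to a biotinylated primer, the partner subunit and triplets, incubated them frozen at −7 °C, then gel-excised extended constructs for streptavidin-bead capture and RT-PCR. Genotypes with ≥10 input reads and ≥1 read per output were kept. Fitness is the logarithm, taken in base 2, of genotype enrichment divided by wild-type enrichment, using inverse-variance-weighted replicate averages.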

Compared with C13U C56U C72G C80U C82U C86U U112C, C13U C56G C72A A105U is higher in “polymerase ribozyme fitness (log ratio)” value: -3.52 for the first, -2.1 for the second.

Compared with C13U C28U C40U A74U C124A, C13U G19U A50G A91U is lower in “polymerase ribozyme fitness (log ratio)” value: -1.32 for the first, -2.58 for the second.

C13U G63U C70G C114A G120C and C13U G63A C101U are within 0.2 log units of each other in “polymerase ribozyme fitness (log ratio)” value: -0.574 for the first, -0.511 for the second.

Compared with C13U U54A G61A, C13U G52U C85U is lower in “polymerase ribozyme fitness (log ratio)” value: -0.0236 for the first, -2.32 for the second.

First: C13U C64A
Second: C13G G47A G63U U96G
The “polymerase ribozyme fitness (log ratio)” value of the first is lower: -6 for the first, -3.63 for the second.

Going from C13U A18C A37C G39U G57A to C13U G60A C114A U130C, the “polymerase ribozyme fitness (log ratio)” value rises from -6.61 to -0.229.

C13U U78C C80U and C13U C73G are within 0.2 log units of each other in “polymerase ribozyme fitness (log ratio)” value: -0.408 for the first, -0.465 for the second.

Compared with C13U G71A C79U C123U, C13U U116C is lower in “polymerase ribozyme fitness (log ratio)” value: 1.62 for the first, 1.02 for the second.

Going from C13U A46G A50U C53U U129C to C13G G113U, the “polymerase ribozyme fitness (log ratio)” value falls from -2.72 to -2.94.

Compared with C13G G58U G60C G117U C123A, C13U A26G G60A G93C is lower in “polymerase ribozyme fitness (log ratio)” value: -2.6 for the first, -4.31 for the second.

Compared with C13U A16G G63A U87A C98A C123G, C13U C56A C86A is higher in “polymerase ribozyme fitness (log ratio)” value: -6.74 for the first, -0.732 for the second.

Going from C13U G127C to C13U A41G G48A G57U U132C, the “polymerase ribozyme fitness (log ratio)” value falls from -1.18 to -1.47.

First: C13U G69A
Second: C13U C56U U67G G71U U106G C114G
The “polymerase ribozyme fitness (log ratio)” value of the first is higher: -2.03 for the first, -7.12 for the second.

First: C13U A43U U59G C72A C104U
Second: C13U A16C G48C U59A A68G A100C A121C
The “polymerase ribozyme fitness (log ratio)” value of the first is higher: -2.63 for the first, -7.2 for the second.

Going from C13U A43C G71A C73G C82A C98G C102A A105U G117C to C13U G63C U92A, the “polymerase ribozyme fitness (log ratio)” value rises from -6.52 to -3.34.

Compared with C13U A41G G60A C94U C115U, C13U A90U G117C is lower in “polymerase ribozyme fitness (log ratio)” value: -1.95 for the first, -3.61 for the second.

First: C13U U14G A68G
Second: C13U A24G G36U C53U C79G C98U C99A
The “polymerase ribozyme fitness (log ratio)” value of the first is higher: -5.25 for the first, -7.05 for the second.

Compared with C13U U14C A50U G120A, C13U C73G C82U is lower in “polymerase ribozyme fitness (log ratio)” value: -0.904 for the first, -1.5 for the second.

Going from C13U G45A A84U U87A to C13U C85G C123U, the “polymerase ribozyme fitness (log ratio)” value rises from -1.98 to 0.618.

First: C13U A68G C73U U112G
Second: C13U A46G
The “polymerase ribozyme fitness (log ratio)” value of the first is lower: -3.26 for the first, -1.03 for the second.

Going from C13U G39A A103U C123U to C13G G58C C64U U92C, the “polymerase ribozyme fitness (log ratio)” value rises from -4.74 to -3.39.

First: C13U C20A
Second: C13U C20U
The “polymerase ribozyme fitness (log ratio)” value of the first is lower: -2.74 for the first, -0.561 for the second.

Going from C13G G93A C101G U112C U130A to C13U C15U C20U U81A A90C C115U, the “polymerase ribozyme fitness (log ratio)” value falls from -4.16 to -4.72.

First: C13U C62U A83C C89U
Second: C13U C102G
The “polymerase ribozyme fitness (log ratio)” value of the first is higher: -0.547 for the first, -6.43 for the second.

Going from C13U G51U G52U C82A to C13U G47A C82G C123G U125A, the “polymerase ribozyme fitness (log ratio)” value rises from -5.14 to -1.19.

First: C13U G51C
Second: C13U G51U
The “polymerase ribozyme fitness (log ratio)” value of the first is higher: -2.27 for the first, -2.84 for the second.

Compared with C13G G60U, C13G G60A is higher in “polymerase ribozyme fitness (log ratio)” value: -2.05 for the first, -1.21 for the second.

Going from C13G U59G G61U U112C to C13U U112C G135U, the “polymerase ribozyme fitness (log ratio)” value rises from -1.62 to 1.11.

Compared with C13U G42U G71U U87A G120C, C13U U106A is higher in “polymerase ribozyme fitness (log ratio)” value: -1.77 for the first, -0.0681 for the second.

Going from C13U U78A C79A U129G to C13U C34U G52C C70A, the “polymerase ribozyme fitness (log ratio)” value falls from -3.68 to -5.48.

Compared with C13U A16G A121U U129A, C13U G57A G110U is lower in “polymerase ribozyme fitness (log ratio)” value: 1.78 for the first, -1.9 for the second.

First: C13U G17A C62U U78A U81A U112A
Second: C13G G45U C72U C89A G120U U130A
The “polymerase ribozyme fitness (log ratio)” value of the first is lower: -4.61 for the first, -2.6 for the second.

First: C13U A46G C104G
Second: C13G G69A C124A G128A
The “polymerase ribozyme fitness (log ratio)” value of the first is lower: -5.37 for the first, -4.44 for the second.

First: C13U C22U C86U
Second: C13U G71A U78G U87A U131A
The “polymerase ribozyme fitness (log ratio)” value of the first is lower: -4.45 for the first, -1.51 for the second.

First: C13U G60A G69A U112G
Second: C13U G57A G69A G110U
The “polymerase ribozyme fitness (log ratio)” value of the first is higher: -5.04 for the first, -6.08 for the second.

Going from C13U A37G A118G G127U G128U U131G to C13U U55G C72G A100C A111U, the “polymerase ribozyme fitness (log ratio)” value falls from -0.0788 to -4.67.

Going from U14A A50C C80G G120U to C13U A26G, the “polymerase ribozyme fitness (log ratio)” value rises from -5.23 to -2.64.

Going from C13U G39U A41G C72U U96G G117A to C13U G51A C56G U78G C89U, the “polymerase ribozyme fitness (log ratio)” value rises from -3.31 to -0.499.

First: C13U A46U U54G A95U C123U
Second: C13U A24G C70A C73A C104U A111U
The “polymerase ribozyme fitness (log ratio)” value of the first is higher: 1.11 for the first, -6.33 for the second.

Compared with C13U C72A, C13U C72G is lower in “polymerase ribozyme fitness (log ratio)” value: 0.891 for the first, -0.128 for the second.

First: C13U A16C C73A A95U G117U C124G
Second: C13G U21C C49U C53G G117A A119G
The “polymerase ribozyme fitness (log ratio)” value of the first is higher: -1.04 for the first, -5.71 for the second.

With C13U A16G A50U A90G the “polymerase ribozyme fitness (log ratio)” value was -0.51.
